For one data set, the target named is T1, METTL14 (human, UniProt Q9HCE5 1-456).
T1 construct: METTL14, human; also called MTC core subunit; source: baculovirus-insect cell expression system, co-expressed, purified
T1 sequence (looked up): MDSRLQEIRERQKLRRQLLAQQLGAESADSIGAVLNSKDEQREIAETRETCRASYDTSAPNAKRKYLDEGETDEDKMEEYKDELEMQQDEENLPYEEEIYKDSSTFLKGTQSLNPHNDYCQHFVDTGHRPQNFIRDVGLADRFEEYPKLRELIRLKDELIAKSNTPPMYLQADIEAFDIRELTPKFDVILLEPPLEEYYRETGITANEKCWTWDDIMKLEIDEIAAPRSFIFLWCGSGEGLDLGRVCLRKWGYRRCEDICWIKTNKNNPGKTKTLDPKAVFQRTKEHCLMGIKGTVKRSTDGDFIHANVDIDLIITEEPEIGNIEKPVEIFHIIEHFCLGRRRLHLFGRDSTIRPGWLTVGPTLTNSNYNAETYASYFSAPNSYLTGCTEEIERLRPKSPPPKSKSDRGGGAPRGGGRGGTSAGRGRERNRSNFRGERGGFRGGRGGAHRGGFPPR
The data set is described as follows: SEC; gel filtration analysis of the purified, co-expressed METTL3–METTL14–WTAP 1-273–VIRMA 381-1486 complex. The settings on record: both partners purified.

Data set [1] concerns the molecule itself. Put plainly: cryo-EM structure; METTL3–METTL14–WTAP 1-273–VIRMA 381-1486 complex, gradient fixation, 3.1 Å; only WTAP 171-237 and VIRMA 381-1292 seen.
Another data set deals with T2, VIRMA^381–1486 (human, UniProt Q69YN4 381-1486).
T2 construct: probably the baculovirus-insect cell system used for the other complexes
T2 sequence (looked up): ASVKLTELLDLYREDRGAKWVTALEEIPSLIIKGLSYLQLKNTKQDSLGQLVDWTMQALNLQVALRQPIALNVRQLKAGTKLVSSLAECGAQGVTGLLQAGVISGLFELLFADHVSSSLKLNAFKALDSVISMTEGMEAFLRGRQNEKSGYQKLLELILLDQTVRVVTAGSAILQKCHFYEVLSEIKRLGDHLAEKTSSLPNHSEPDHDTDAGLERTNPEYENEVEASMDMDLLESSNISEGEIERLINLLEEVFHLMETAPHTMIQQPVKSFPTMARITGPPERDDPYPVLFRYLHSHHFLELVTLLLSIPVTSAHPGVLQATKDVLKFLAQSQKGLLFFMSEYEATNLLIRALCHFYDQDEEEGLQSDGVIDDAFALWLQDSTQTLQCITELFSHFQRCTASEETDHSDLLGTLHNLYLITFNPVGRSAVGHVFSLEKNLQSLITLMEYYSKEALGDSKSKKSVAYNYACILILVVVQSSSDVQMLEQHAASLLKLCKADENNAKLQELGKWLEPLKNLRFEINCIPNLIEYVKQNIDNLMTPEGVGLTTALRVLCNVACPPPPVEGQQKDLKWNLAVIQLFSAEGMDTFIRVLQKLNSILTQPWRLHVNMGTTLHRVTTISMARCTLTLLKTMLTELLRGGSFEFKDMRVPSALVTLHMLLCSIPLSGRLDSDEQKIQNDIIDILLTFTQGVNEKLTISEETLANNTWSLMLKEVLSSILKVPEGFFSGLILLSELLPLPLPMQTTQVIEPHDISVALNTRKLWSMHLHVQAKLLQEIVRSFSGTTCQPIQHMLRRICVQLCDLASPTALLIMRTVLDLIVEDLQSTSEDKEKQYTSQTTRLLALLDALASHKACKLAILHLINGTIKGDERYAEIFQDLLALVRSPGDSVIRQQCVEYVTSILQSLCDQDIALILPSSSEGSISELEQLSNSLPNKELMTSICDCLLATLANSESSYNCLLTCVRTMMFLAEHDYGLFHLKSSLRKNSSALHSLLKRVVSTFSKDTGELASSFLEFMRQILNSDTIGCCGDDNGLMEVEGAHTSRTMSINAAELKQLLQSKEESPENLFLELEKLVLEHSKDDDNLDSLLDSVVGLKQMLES
The description is as above. The settings on record: both partners purified.

The target of a further data set is T3, METTL3 (human, UniProt Q86U44 1-580).
T3 construct: METTL3, human; The same molecule is used for the co-purifications, the gel filtration and the cross-linking; also called MTC core subunit; source: baculovirus-insect cell expression system, co-expressed, purified
Put plainly: cross-linking; in vitro CXMS of the quaternary M–M–W–V complex with BS3, FDR < 5%. The settings on record: both partners purified.

Data set [2] concerns the molecule itself. The data set is described as follows: crystal structure; WTAP 130-241 alone, 2.40 Å.

T3 sequence (Q86U44 whole entry): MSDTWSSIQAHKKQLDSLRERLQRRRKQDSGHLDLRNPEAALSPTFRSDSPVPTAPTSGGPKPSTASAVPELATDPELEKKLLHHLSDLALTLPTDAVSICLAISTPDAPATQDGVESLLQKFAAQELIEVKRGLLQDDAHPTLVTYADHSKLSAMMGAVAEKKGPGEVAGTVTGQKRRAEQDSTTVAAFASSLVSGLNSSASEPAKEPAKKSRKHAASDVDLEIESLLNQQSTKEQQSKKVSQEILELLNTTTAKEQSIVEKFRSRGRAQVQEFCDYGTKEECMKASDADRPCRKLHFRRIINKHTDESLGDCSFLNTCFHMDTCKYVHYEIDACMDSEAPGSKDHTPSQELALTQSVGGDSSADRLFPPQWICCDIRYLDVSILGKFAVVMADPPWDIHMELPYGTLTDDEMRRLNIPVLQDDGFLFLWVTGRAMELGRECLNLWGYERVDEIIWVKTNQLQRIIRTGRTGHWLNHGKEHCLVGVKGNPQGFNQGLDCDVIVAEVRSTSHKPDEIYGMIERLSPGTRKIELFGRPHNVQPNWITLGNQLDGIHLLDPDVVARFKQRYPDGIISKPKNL

B1: WTAP^1–273 (domain or fragment, human, UniProt Q15007 1-273, looked up)
chain: MTNEEPLPKKVRLSETDFKVMARDELILRWKQYEAYVQALEGKYTDLNSNDVTGLRESEEKLKQQQQESARRENILVMRLATKEQEMQECTTQIQYLKQVQQPSVAQLRSTMVDPAINLFFLKMKGELEQTKDKLEQAQNELSAWKFTPDSQTGKKLMAKCRMLIQENQELGRQLSQGRIAQLEAELALQKKYSEELKSSQDELNDFIIQLDEEVEGMQSTILVLQQQLKETRQQLAQYQQQQSQASAPSTSRTTASEPVEQSEATSKDCSRL
notes: probably the baculovirus-insect cell system used for the other complexes; also called WTAPA; WTAPB
For the molecule B1, the binding result with METTL14 and with METTL3 was “binds” throughout. Moreover, the “stoichiometry N” value in data set [1] is 2; in the data set with VIRMA^381–1486, 2 WTAP:VIRMA.

B2: WTAP^130–241 (domain or fragment, human, UniProt Q15007 130-241, looked up)
chain: QTKDKLEQAQNELSAWKFTPDSQTGKKLMAKCRMLIQENQELGRQLSQGRIAQLEAELALQKKYSEELKSSQDELNDFIIQLDEEVEGMQSTILVLQQQLKETRQQLAQYQQ
notes: WTAP, human, residues 130-241; density assigned for residues 150-241; also called WTAP alone; WTAP^150–241 (assigned density); source: Escherichia coli expression system
Take B2: the “stoichiometry N” value in data set [2] is 2.

The values above are taken from PMC9715571 (Cell Research, 2022).
